The record followed here is article PMC11362210, “N-carboxyacyl and N-α-aminoacyl derivatives of aminoaldehydes as shared substrates of plant aldehyde dehydrogenases 10 and 7” (Amino Acids, 2024).

Common to all, as to assay: purified protein
Substrate in series [1]: N[C@@H](CCCC=O)C(=O)O
The format is biochemical, Zea mays. The following applies: 2.5 mM NAD+, 0.1 M sodium pyrophosphate, pH 8.1.

Substrate in series [2]: N[C@@H](Cc1ccc(O)cc1)C(=O)NCCC=O
The format is biochemical, Zea mays. The following applies: 2.5 mM NAD+, 0.1 M sodium pyrophosphate, pH 8.1.

Substrate in series [3]: N[C@@H](Cc1ccccc1)C(=O)NCCC=O
The format is biochemical, Zea mays. The following applies: 2.5 mM NAD+, 0.1 M sodium pyrophosphate, pH 8.1.

Substrate in series [4]: N[C@@H](Cc1ccccc1)C(=O)NCCCC=O
The format is biochemical, Zea mays. The following applies: 2.5 mM NAD+, 0.1 M sodium pyrophosphate, pH 8.1.

Substrate in series [5]: O=CCCCNC(=O)CC(=O)O
The format is biochemical, Zea mays. The following applies: 2.5 mM NAD+, 0.1 M sodium pyrophosphate, pH 8.1.

Substrate in series [6]: O=CCCNC(=O)CC(=O)O
The format is biochemical, Zea mays. The settings on record: 2.5 mM NAD+, 0.1 M sodium pyrophosphate, pH 8.1.

Substrate in series [7]: N[C@@H](CCCC=O)C(=O)O
The format is biochemical, Lathyrus oleraceus. The settings on record: 2.5 mM NAD+, 0.1 M sodium pyrophosphate, pH 8.1.

Substrate in series [8]: N[C@@H](Cc1ccc(O)cc1)C(=O)NCCC=O
The format is biochemical, Lathyrus oleraceus. The settings on record: 2.5 mM NAD+, 0.1 M sodium pyrophosphate, pH 8.1.

Substrate in series [9]: N[C@@H](Cc1ccccc1)C(=O)NCCC=O
The format is biochemical, Lathyrus oleraceus. The following applies: 2.5 mM NAD+, 0.1 M sodium pyrophosphate, pH 8.1.

Substrate in series [10]: N[C@@H](Cc1ccccc1)C(=O)NCCCC=O
The format is biochemical, Lathyrus oleraceus.

Substrate in series [11]: O=CCCCNC(=O)CC(=O)O
The format is biochemical, Lathyrus oleraceus. The following applies: 2.5 mM NAD+, 0.1 M sodium pyrophosphate, pH 8.1.

Substrate in series [12]: O=CCCNC(=O)CC(=O)O
The format is biochemical, Lathyrus oleraceus. The settings on record: 2.5 mM NAD+, 0.1 M sodium pyrophosphate, pH 8.1.

Substrate in series [13]: NCCC=O
The format is biochemical, Lathyrus oleraceus. The settings on record: 1 mM NAD+, 0.15 M Tris-HCl, pH 9.0.

Substrate in series [14]: NCCCC=O
The format is biochemical, Lathyrus oleraceus. The following applies: 1 mM NAD+, 0.15 M Tris-HCl, pH 9.0.

Substrate in series [15]: N[C@@H](Cc1ccc(O)cc1)C(=O)NCCCC=O
The format is biochemical, Lathyrus oleraceus. The settings on record: 1 mM NAD+, 0.15 M Tris-HCl, pH 9.0.

Substrate in series [16]: O=CCCCNC(=O)CCC(=O)O
The format is biochemical, Lathyrus oleraceus. The following applies: 1 mM NAD+, 0.15 M Tris-HCl, pH 9.0.

Substrate in series [17]: O=CCCCNC(=O)CCCC(=O)O
The format is biochemical, Lathyrus oleraceus. The following applies: 1 mM NAD+, 0.15 M Tris-HCl, pH 9.0.

Substrate in series [18]: O=CCCNC(=O)CCC(=O)O
The format is biochemical, Lathyrus oleraceus. The following applies: 1 mM NAD+, 0.15 M Tris-HCl, pH 9.0.

Substrate in series [19]: O=CCCNC(=O)CCCC(=O)O
The format is biochemical, Lathyrus oleraceus. The following applies: 1 mM NAD+, 0.15 M Tris-HCl, pH 9.0.

The mark [20] stands for this setting: 2.5 mM NAD+, 0.1 M sodium pyrophosphate, pH 8.1.
The mark [21] stands for this setting: 1 mM NAD+, 0.15 M Tris-HCl, pH 9.0.

B1: ZmALDH7 (Zea mays) (protein)
chain: MGAFAKEEHQFLAELGLAQRNPGAFACGAWGGSGPTVTSTSPTNNQVIAEVVEASVHDYEEGMRACFDAAKTWMAIPAPKRGEIVRQIGDALRAKLHHLGRLVSLEMGKILPEGIGEVQEIIDMCDYAVGLSRQLNGSIIPSERPNHMMMEVWNPLGVVGVITAFNFPCAVLGWNACIALVCGNCVVWKGAPTTPLITIAMTKIVASVLEKNNLPGAIFTSFCGGTEIGQAIALDIRIPLVSFTGSTRAGLMVQQQVSARFGKCLLELSGNNAIIVMDDADIQLAVRSVLFAAVGTAGQRCTTCRRLILHENIYQTFLDQLVEVYKQVRIGDPLEKGTLLGPLHTPASKENFLKGIQTIKSQGGKILFGGSAIESEGNFVQPTIVEITPSAPVVKEELFGPVLYVMKFQSLKEAIEINNSVPQGLSSSIFTKRPDIIFKWLGPHGSDCGIVNVNIPTNGAEIGGAFGGEKATGGGREAGSDSWKQYMRRATCTINYGSELPLAQGINFG
notes: recombinant
Broadly, the Km is the concentration of substrate that gives half-maximal velocity. The term kcat denotes the maximal rate divided by the concentration of active sites. Usually kcat/Km stands for the turnover number divided by the Michaelis constant. For B1, the Km in [1] is 191 ± 14 µM; in series [2] it was 216 ± 56 µM; in [3] it was 66 ± 12 µM; in series [4], 457 ± 55 µM; in series [5], 1493 ± 225 µM; in series [6] it was 1997 ± 142 µM. Besides, the kcat worked out at 0.77 ± 0.04 s⁻¹ in series [1]; 0.06 ± 0.01 s⁻¹ in series [2]; 0.06 ± 0.01 s⁻¹ in series [3]; 0.02 s⁻¹ in series [4]; 0.18 ± 0.01 s⁻¹ in [5]; 0.15 ± 0.01 s⁻¹ in series [6]. For the same protein, the kcat/Km in [1] was determined as 4000 M⁻¹ s⁻¹; in series [2], 280 M⁻¹ s⁻¹; in series [3], 910 M⁻¹ s⁻¹; in [4], 44 M⁻¹ s⁻¹; in series [5], 120 M⁻¹ s⁻¹; in [6], 75 M⁻¹ s⁻¹.

B2: PsALDH7 (Lathyrus oleraceus) (protein)
chain: GSDSNNLGFLKEIGLGATNIGSFINGQWKANGPTVHSVNPSTNQVIASVTEATLDDYEEGLRASSEAAKTWRTVPAPKRGEIVRQIGDALRAKLDPLGRLVALEMGKILAEGIGEVQEIIDMCDYSVGLSRQLNGSIIPSERPEHMMFEVWNPLGIVGVITAFNFPCAVLGWNACIALVGGNTVVWKGAPTTPLITVAVTKLIAEVFERNNLPGAIFTALCGGADIGHAIAKDTRIPLVSFTGSSKVGALVQQTVSQRFGKTLLELSGNNAIIVMDDADITLAVRSIFFAAVGTAGQRCTTCRRLYLHESVYANVLEQLTALYKQVKIGNPLEEGTLVGPLHTRSAVENFKNGISAIKSQGGKIVTGGSVLESEGNFVVPTIVEISADAAVVKEELFAPVLYVMKFKDLEEAIALNNSVPQGLSSSIFTQKPSTIFKWIGPSGSDCGIVNVNIPTNGAEIGGAFGGEKATGGGREAGSDSWKQYMRRSTCTINYGSELPLAQGINFG
notes: recombinant
As for B2, the Km in series [7] was found to be 172 ± 32 µM; in series [8], 252 ± 45 µM; in series [9] it was 74 ± 7 µM; in series [10] (setting [20]), 656 ± 55 µM; in series [11], 703 ± 72 µM; in series [12] it was 2522 ± 203 µM. Besides, the kcat was determined as 0.77 ± 0.09 s⁻¹ in series [7]; 0.09 ± 0.01 s⁻¹ in series [8]; 0.07 s⁻¹ in series [9]; 0.04 s⁻¹ in [10] (setting [20]); 0.13 ± 0.01 s⁻¹ in series [11]; 0.19 ± 0.01 s⁻¹ in series [12]. For the same protein, the kcat/Km in series [7] was 4500 M⁻¹ s⁻¹; in series [8], 360 M⁻¹ s⁻¹; in [9], 950 M⁻¹ s⁻¹; in series [10] (setting [20]), 61 M⁻¹ s⁻¹; in series [11] it was 180 M⁻¹ s⁻¹; in series [12], 75 M⁻¹ s⁻¹.

B3: PsAMADH (native pea aminoaldehyde dehydrogenase, prevailing isoenzyme 1) (Lathyrus oleraceus) (protein)
chain: MAITVSSRQLFIDGEWRVPILNKRIPNINPSTENIIGDIPAATKEDVDLAVDAAKRAISRKNGRDWSAASGSLRARYLRAIAAKIKEKKDELGKLESIDCGKPLEEALADLDDVVACFEYYAGLAEELDSKQKAPISLPMDTFKSYILKEPIGVVALITPWNYPFLMATWKIAPALAAGCAAILKPSELASVTCLELGEICKEVGLPRGVLNIVTGLGHEAGASLASHPDVDKISFTGSSATGSKIMTTAAQLVKPVSLELGGKSPIVVFEDVDLDKVAEWTVFGCFFTNGQICSATSRLIVHESIAVEFVDKLVKWAENIKISDPLEEGCRLGPIVSEAQYKKVLNCISSAKSEGATILTGGRRPEHLKKGYFVEPTIITDVTTSMQIWREEVFGPVLAVKTFSTEEEAINLANDTHYGLGSAVMSNDLERCERLSKALQAGIVWINCAQPSFIQAPWGGIKRSGFGRELGEWGLENYLSVKQVTRYTSDEPWGWYQPPSKL
notes: native, purified from 7-day-old etiolated pea seedlings
Regarding B3, the Michaelis constant (Km) is 136 ± 11 µM in series [13]; 103 ± 17 µM in series [14]; 174 ± 42 µM in [15]; 101 ± 10 µM in [10] (setting [21]); 138 ± 6 µM in [16]; 427 ± 33 µM in [17]. For the same protein, the Km stood at 513 ± 36 µM in series [18] and 506 ± 92 µM in series [19]. Besides, the kcat stood at 3.36 ± 0.2 s⁻¹ in series [13]; 1.34 ± 0.07 s⁻¹ in series [14]; 0.22 ± 0.04 s⁻¹ in series [15]; 0.17 s⁻¹ in [10] (setting [21]); 1.61 ± 0.07 s⁻¹ in series [16]; 1.49 ± 0.11 s⁻¹ in series [17]. For the same protein, the kcat in [18] is 4.13 ± 0.2 s⁻¹; in [19], 1.29 ± 0.14 s⁻¹. Moreover, the kcat/Km in [13] came to 24700 M⁻¹ s⁻¹; in series [14], 13000 M⁻¹ s⁻¹; in [15], 1300 M⁻¹ s⁻¹; in series [10] (setting [21]), 1700 M⁻¹ s⁻¹; in series [16], 11700 M⁻¹ s⁻¹; in series [17], 3500 M⁻¹ s⁻¹. Besides, the kcat/Km was found to be 8100 M⁻¹ s⁻¹ in series [18] and 2500 M⁻¹ s⁻¹ in [19].
